The record followed here is patent US20220096654A1, “PYRROLOBENZODIAZEPINE-ANTIBODY CONJUGATES AND USES THEREOF” (ADC THERAPEUTICS SA, priority 2020, published 2022).

The subject of one series is human CD45+ OCIM1 cells. The series can be described thus: Complement dependent cytotoxicity (51Cr release) assay. Format: cell-based. To be noted: 10 ug/ml antibody, 10% baby rabbit serum. Here is the method:
1×10^6 human CD45+ OCIM1 cells in 100 uL of complete medium (RPMI 1640 plus 10% fetal calf serum) were radiolabelled with 100 μCi ^51Cr sodium chromate for 1 h at 37° C. followed by three washes with complete medium. Labelled cells were incubated at 5×10^4/mL in triplicate wells of a 96 well plate in presence of YTH24.5 alone, YTH54.12 alone or with both antibodies for 10 mins at room temperature before of addition of baby rabbit serum at a final concentration of 10%. A final concentration of 5% Triton X-100 was added to control wells of cells to determined maximum lysis. 50 uL of supernatant from each well was transferred into a white-walled plates containing 150 uL scintillation liquid in each well. Plates were read in a MicroBeta counter (Trilux) after overnight incubation. The percentage of specific lysis was calculated using the standard formula [(experimental−spontaneous release)/(maximum load-spontaneous release)×100] and expressed as the mean of triplicate samples.

For the next series, the system named is CD34+ PBSC (CD45+). The series can be described thus: Clonogenic assay, CD34+ PBSC treated 2 h with Mab or ADC. Format: cell-based, human. Here is the method:
Cryopreserved purified CD34+ cells from mobilized peripheral blood from three normal donors were thawed and cultured at […] complete medium (RPMI 1640 plus 10% fetal calf serum) in presence of Mab, ADC or medium alone for 2 hours in 96-well U-bottom plates. Cells were mixed and 40 uL was transferred to 2 ml of StemMACS HSC-CFU complete with Epo (Miltenyi Biotech) and mixed well. 0.5 ml (250 cells) was plated into triplicate into wells of a 24-well plate. Colonies were enumerated between 10-14 days. Data is mean of three donors±s.d.

For a further series, the system named is human CD34+ cells. The series can be described thus: Ex vivo treatment of CD34+ cells with Mab or ADC prior to engraftment in NSG mice. To be noted: CD34+ cells treated at 1 nM and 0.1 nM for 4 hours before transplantation; week 8. The method, then:
Adult female NSG mice were sublethally irradiated with 2.5 Gy on the day before transplantation. Cryopreserved purified CD34+ cells from mobilized peripheral blood from a normal donor were thawed and cultured in complete medium (RPMI 1640 plus 10% fetal calf serum) in presence of Mab, ADC or medium alone for 4 hours. Cells were washed in phosphate buffered saline (PBS) and 0.5×10^6 cells in PBS were injected intravenously into the tail vein of mice. Engraftment of transplanted human cells (hCD45+) in the bone marrow of mice was determined by flow cytometry at 8 weeks after transplantation.

Series [1] in a line: Dosimetry in non-humanised NSG mice. Type of series: in vivo. To be noted: for Comment (survival / culling): non-humanised NSG mice, monitored 2 weeks. Here is the method: For dosimetry in non-humanised NSG mice, adult NSG mice were injected intravenously via the tail vein with unconjugated Mab or ADC up to 5 mg/kg. Mice regularly monitored over a period of 2 weeks for any signs of morbidity. Mice were culled if rapid weight loss (>15%) occurred over a period of 2 days.

A further series relates to human CD45+ cells. The series can be described thus: Depletion of human CD45+ cells in humanised NSG mice. Type of series: in vivo. To be noted: for course of the levels of human CD45+ cells in blood: 1 mg/kg, two week period. The method, then:
Adult female NSG mice were sublethally irradiated with 2.5 Gy on the day before transplantation (day −57). Cryopreserved purified CD34+ cells from mobilized peripheral blood from a normal donor were thawed and 0.5×10^6 cells in PBS were injected intravenously into the tail vein of mice (day −56). Human engraftment (human CD45+ cells) in the blood of mice was assessed at day −14 and day −1. Mice were assigned to treatment cohorts so that the median human CD45+ engraftment in the blood between the cohorts was as similar as possible. Mice were injected with 0.3 mg/kg or 1 mg/kg Mab or ADC intravenously via the tail vein. Blood samples were taken after 7 days and analysed by flow cytometry. The bone marrow, blood and spleen of mice were analysed at two weeks post-treatment.

Series [2] relates to luciferase expressing human CD45+ Jurkat cells. The series is described as follows: Jurkat leukaemia model in NSG mice (bioluminescence, survival). To be noted: 1 mg/kg, day 16. Format: in vivo. The method, then: Adult NSG mice were sublethally irradiated with 2 Gy on the day before injection of cells. 5×10^6 fire fly luciferase expressing Jurkat cells in PBS were injected intravenously into the tail vein of mice. On the following day PBS, MAbs or ADC were injected intravenously into the tail vein at a dose of 1 mg/kg. Mice were regularly monitored for signs of morbidity and weight loss for the duration of the experiment. For imaging, mice were injected intraperitoneally with 3 mg D-luciferin in PBS. Mice were initially anesthetized with 4% isoflurane and then maintained at 2% isoflurane. Ten minutes after injection of D-luciferin, mice were imaged inside a IVIS Lumina III (PerkinElmer). A sub-saturating image was captured using the auto-exposure setting in the Living Image software.

The subject of the next series is target cells. The series is described as follows: Live-imaging microscopy of antibody internalisation. To be noted: live-imaging microscopy (data not shown). Format: cell-based. An excerpt: In particular, the lysosomal pathway can be important in providing an environment for cleavage of the antibody-drug linkers, hereby releasing the drug in the target cells for highly specific cell killing.

Another series deals with 293T (CD45-). The series is described as follows: Cell viability assay 72 h (PrestoBlue), 293T. To be noted: drug-linker B1. Type of series: cell-based, human. The method, then:
OCIM1, Jurkat and Nalm6 cells were seeded at 0.5×10^5/mL were cultured for 72 hours in presence of Mab or ADC or medium (in triplicate wells) in wells of flat bottom 96-well plates. 293T cells were seeded at 9.3×10^3 cells per well in flat bottom 96-well plates and allowed to adhere the plate for up to 24 hours. 293T cells were subsequently cultured with Mab or ADC or medium (in triplicate wells) for 72 hours. PrestoBlue® Cell viability Reagent (Thermo Fisher Scientific) was added to each and incubated for up to 1.5 hours. Fluorescence intensity from each well was detected using a FLUOstar OPTIMA microplate reader (BMG Labtech). Data points are mean±s.d. for representative experiments.

Series [3] can be described thus: Dosimetry in humanised NSG mice. Format: in vivo. To be noted: 3 mg/kg, culled for weight loss >15%. The method, then:
For dosimetry in humanised NSG mice, adult female NSG mice were sublethally irradiated with 2.5 Gy on the day before transplantation. Cryopreserved purified CD34+ cells from mobilized peripheral blood from a normal donor were thawed and 0.5×10^6 cells in PBS were injected intravenously into the tail vein. Human engraftment (human CD45+ cells) in the blood of all mice was determined by flow cytometry at 12 weeks post-transplant. Mice were assigned to treatment cohorts so that the median human engraftment in the blood for between cohorts was as similar as possible. Mice were treated with 0.3 mg/kg or 3 mg/kg Mab or ADC. Blood samples were taken after 7 days and analysed by flow cytometry. The bone marrow, blood and spleen of mice were analysed at 14 days post-treatment.

[4] abbreviates: MAbs in human IgG1-AAA or rat IgG2b format, Isotype control and Isotype control PBD rat IgG2b format only.

B1: YTH54.12 (antibody)
heavy: EVQLVESGGGLVQPGGSMKLSCAASGFTFSDYYMAWVRQAPKKGLEWVASMSFAGSSTYYGDSVKGRFTISRDNAKTTLYLQMNSLRSEDTATYYCARMYTTDYYLYWYFDFWGPGTMVTVSSAQTTAPSVYPLAPGCGDTTSSTVTLGCLVKGYFPEPVTVTWNSGALSSDVHTFPAVLQSGLYTLTSSVTSSTWPSQTVTCNVAHPASSTKVDKKVERRNGGIGHKCPTCPTCHKCPVPELLGGPSVFIFPPKPKDILLISQNAKVTCVVVDVSEEEPDVQFSWFVNNVEVHTAQTQPREEQYNSTFRVVSALPIQHQDWMSGKEFKCKVNNKALPSPIEKTISKPKGLVRKPQVYVMGPPTEQLTEQTVSLTCLTSGFLPNDIGVEWTSNGHIEKNYKNTEPVMDSDGSFFMYSKLNVERSRWDSRAPFVCSVVHEGLHNHHVEKSISRPPGK
light: DVQMTQSPSYLAASPGESVSISCKASKSISNYLAWYQQKPGEANKILIYSGSTLQSGTPSRFSGSGSGTDFSLTIRNLEPEDFAVYYCQQYDEKPLTFGSGTKLEIKRADAAPTVSIFPPSMEQLTSGGATVVCFVNNFYPRDISVKWKIDGSEQRDGVLDSVTDQDSKDSTYSMSSTLSLTKVEYERHNLYTCEVVHKTSSSPVVKSFNRNEC
On to B1, for which the “lytic activity on OCIM1 cells” value with human CD45+ OCIM1 cells was “no lytic activity”. In the series with CD34+ PBSC (CD45+) (setting [4]), the “inhibition of colony formation” value is given as “do not inhibit colony formation”. For the same molecule, the “engraftment of human CD45+ cells in the bone marrow of NSG mice” value in the series with human CD34+ cells is reported as “prevented engraftment”. For the same molecule, the “Comment (survival / culling)” value in series [1] (5 mg/kg i.v.) is recorded as “All alive at day 14”. For the same molecule, the figures for the “Mean % hCD45 levels in blood, 1 week post-treatment” value in the series on human CD45+ cells (0.3 mg/kg i.v.) and in the series with human CD45+ cells (1 mg/kg i.v.) were 3.19% and 1.02%, respectively. Further, the “Mean % hCD45 levels in blood, 2 weeks Post-treatment” value in the series with human CD45+ cells (0.3 mg/kg i.v.) came out at 3.81%; in the series with human CD45+ cells (1 mg/kg i.v.) it was 1.84%. Besides, in the series with human CD45+ cells, the “course of the levels of human CD45+ cells in blood” value is “transient reduction”. The figures for the “Mean % hCD45 levels in blood, Pre-treatment” value in the series on human CD45+ cells (group later dosed 0.3 mg/kg) and in the series with human CD45+ cells (group later dosed 1 mg/kg) were 5.52% and 5.98%, respectively. Moreover, the “bioluminescent signal of naked antibody group relative to the corresponding ADC group” value in [2] worked out at 10 fold. For the same molecule, the internalisation result with target cells is listed as “substantially internalised via a lysosomal pathway”.

B2: YTH24.5 (antibody)
heavy: QVNLLQSGAALVKPGASVKLSCKASSYTFTDYYIHWVKQSHGKTLEWIGYINPKSGFTNYNEKFRRKATLTVDKSTNTAYMDISRLTSEDSATYYCTRRTGVIPMDAWGQGASVTVSSAQTTAPSVYPLAPGCGDTTSSTVTLGCLVKGYFPEPVTVTWNSGALSSDVHTFPAVLQSGLYTLTSSVTSSTWPSQTVTCNVAHPASSTKVDKKVERRNGGIGHKCPTCPTCHKCPVPELLGGPSVFIFPPKPKDILLISQNAKVTCVVVDVSEEEPDVQFSWFVNNVEVHTAQTQPREEQYNSTFRVVSALPIQHQDWMSGKEFKCKVNNKALPSPIEKTISKPKGLVRKPQVYVMGPPTEQLTEQTVSLTCLTSGFLPNDIGVEWTSNGHIEKNYKNTEPVMDSDGSFFMYSKLNVERSRWDSRAPFVCSVVHEGLHNHHVEKSISRPPGK
light: DVVMTQTPVSLSVSLGGQVSISCRSSQSFVSSDGNTYLNWYLQKPGQSPQLLIYKVSNRLSGVPDRFSGSGSGTDFTLKISRVEHDDLGVYYCGQASKIPLTFGSGTKLEIKRADAAPTVSIFPPSMEQLTSGGATVVCFVNNFYPRDISVKWKIDGSEQRDGVLDSVTDQDSKDSTYSMSSTLSLTKVEYERHNLYTCEVVHKTSSSPVVKSFNRNEC
For B2, the “lytic activity on OCIM1 cells” value in the series on human CD45+ OCIM1 cells is listed as “showed lytic activity”. Further, in the series with CD34+ PBSC (CD45+) (setting [4]), the “inhibition of colony formation” value is given as “do not inhibit colony formation”. The “engraftment of human CD45+ cells in the bone marrow of NSG mice” value in the series with human CD34+ cells was “prevented engraftment”. In addition, the “Comment (survival / culling)” value in series [1] (5 mg/kg i.v.) was “All alive at day 14”. In addition, the “Mean % hCD45 levels in blood, 1 week post-treatment” value in the series on human CD45+ cells (0.3 mg/kg i.v.) was found to be 3.53%; in the series on human CD45+ cells (1 mg/kg i.v.), 0.82%. Also, the “Mean % hCD45 levels in blood, 2 weeks Post-treatment” value in the series on human CD45+ cells (0.3 mg/kg i.v.) was 4.72%; in the series with human CD45+ cells (1 mg/kg i.v.), 3.92%. Besides, the “course of the levels of human CD45+ cells in blood” value in the series on human CD45+ cells is given as “transient reduction”. Also, the “Mean % hCD45 levels in blood, Pre-treatment” value in the series with human CD45+ cells (group later dosed 0.3 mg/kg) came out at 5.55%; in the series on human CD45+ cells (group later dosed 1 mg/kg), 5.47%. Also, the “bioluminescent signal of naked antibody group relative to the corresponding ADC group” value in series [2] was determined as 100 fold. Moreover, in the series on target cells, the internalisation result is on record as “substantially internalised via a lysosomal pathway”.

B3: YTH24.5-hIgG1-AAA-PBD: YTH24.5 in human IgG1-AAA format conjugated to PBD drug-linker B1 (conjugate)
VH: QVNLLQSGAALVKPGASVKLSCKASSYTFTDYYIHWVKQSHGKTLEWIGYINPKSGFTNYNEKFRRKATLTVDKSTNTAYMDISRLTSEDSATYYCTRRTGVIPMDAWGQGASVTVSS
VL: DVVMTQTPVSLSVSLGGQVSISCRSSQSFVSSDGNTYLNWYLQKPGQSPQLLIYKVSNRLSGVPDRFSGSGSGTDFTLKISRVEHDDLGVYYCGQASKIPLTFGSGTKLEIK
A word on the EC50: it is the midpoint of the concentration-response curve. In the series with 293T (CD45-), B3 showed an EC50 of 134 nM. For the same molecule, the “inhibition of colony formation” value with CD34+ PBSC (CD45+) (PBD ADCs in human IgG1-AAA format) is listed as “dose-dependent inhibition of colony formation”. Also, the “Comment (survival / culling)” value in series [1] (0.5 mg/kg i.v.) is “All alive at day 14”; in series [1] (5 mg/kg i.v.) it was 2 culled at day 6 -; in [3] it was 1 culled day 6, 1. Further, the “mice culled due to weight loss” value in series [1] (human (hIgG1-AAA) format, ≥3 mg/kg, humanised and non-humanised mice) is given as 4 of the 6.
